Source: patent US20080248034A1 (MORPHOTEK, published 2008)

Molecular target: tetanus toxoid (TT) (UniProt P04958 2-1315)
Assay: antigen-specific ELISA, coated at 1:500 dilution (FIG. 4B)

tetanus toxoid (TT), sequence (P04958 2-457 limits assumed, chain 1 of 2): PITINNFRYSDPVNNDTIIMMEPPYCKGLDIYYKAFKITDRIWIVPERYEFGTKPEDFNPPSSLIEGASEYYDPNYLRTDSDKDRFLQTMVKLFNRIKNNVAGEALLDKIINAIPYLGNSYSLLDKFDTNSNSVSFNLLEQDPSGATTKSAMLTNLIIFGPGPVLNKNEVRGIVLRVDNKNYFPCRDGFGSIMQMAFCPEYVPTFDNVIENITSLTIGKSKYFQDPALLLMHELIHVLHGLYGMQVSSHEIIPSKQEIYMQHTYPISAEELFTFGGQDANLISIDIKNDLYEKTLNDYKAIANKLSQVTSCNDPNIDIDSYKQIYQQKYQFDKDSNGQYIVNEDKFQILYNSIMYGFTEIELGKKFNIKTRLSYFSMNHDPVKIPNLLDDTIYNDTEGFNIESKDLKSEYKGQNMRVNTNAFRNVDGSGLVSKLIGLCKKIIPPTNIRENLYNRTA
tetanus toxoid (TT), sequence (P04958 458-1315 limits assumed, chain 2 of 2): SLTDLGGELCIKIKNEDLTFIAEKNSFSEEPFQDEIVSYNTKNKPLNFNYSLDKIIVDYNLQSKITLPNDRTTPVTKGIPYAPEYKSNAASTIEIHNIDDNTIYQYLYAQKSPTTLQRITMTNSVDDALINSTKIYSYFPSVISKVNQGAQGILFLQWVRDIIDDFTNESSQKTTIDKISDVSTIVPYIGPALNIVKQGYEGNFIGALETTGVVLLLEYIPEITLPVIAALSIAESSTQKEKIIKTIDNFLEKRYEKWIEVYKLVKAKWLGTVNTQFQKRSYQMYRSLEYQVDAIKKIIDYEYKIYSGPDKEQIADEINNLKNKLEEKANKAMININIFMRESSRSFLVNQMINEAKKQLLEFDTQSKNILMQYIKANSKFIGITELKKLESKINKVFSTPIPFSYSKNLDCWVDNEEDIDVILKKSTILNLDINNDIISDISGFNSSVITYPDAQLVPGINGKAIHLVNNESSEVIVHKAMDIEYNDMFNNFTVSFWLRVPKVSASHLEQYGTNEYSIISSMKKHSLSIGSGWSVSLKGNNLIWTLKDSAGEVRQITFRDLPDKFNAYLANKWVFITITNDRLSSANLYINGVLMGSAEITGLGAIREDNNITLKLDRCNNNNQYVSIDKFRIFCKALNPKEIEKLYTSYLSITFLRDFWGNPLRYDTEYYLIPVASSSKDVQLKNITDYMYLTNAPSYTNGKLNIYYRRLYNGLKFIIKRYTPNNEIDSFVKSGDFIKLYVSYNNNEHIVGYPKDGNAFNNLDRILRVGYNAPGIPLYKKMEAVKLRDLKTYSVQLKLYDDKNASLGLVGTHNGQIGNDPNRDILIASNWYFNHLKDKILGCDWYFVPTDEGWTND

B1: Fc-TEM1 (soluble recombinant endosialin: full-length TEM1 extracellular domain fused to monomeric murine IgG2b Fc) (Fc fusion, human)
chain: QDPWAAEPRAACGPSSCYALFPRRRTFLEAWRACRELGGDLATPRTPEEAQRVDSLVGAGPASRLLWIGLQRQARQCQLQRPLRGFTWTTGDQDTAFTNWAQPASGGPCPAQRCVALEASGEHRWLEGSCTLAVDGYLCQFGFEGACPALQDEAGQAGPAVYTTPFHLVSTEFEWLPFGSVAAVQCQAGRGASLLCVKQPEGGVGWSRAGPLCLGTGCSPDNGGCEHECVEEVDGHVSCRCTEGFRLAADGRSCEDPCAQAPCEQQCEPGGPQGYSCHCRLGFRPAEDDPHRCVDTDECQIAGVCQQMCVNYVGGFECYCSEGHELEADGISCSPAGAMGAQASQDLGDELLDDGEDEEDEDEAWKAFNGGWTEMPGILWMEPTQPPDFALAYRPSFPEDREPQIPYPEPTWPPPLSAPRVPYHSSVLSVTRPVVVSATHPTLPSAHQPPVIPATHPALSRDHQIPVIAANYPDLPSAYQPGILSVSHSAQPPAHQPPMISTKYPELFPAHQSPMFPDTRVAGTQTTTHLPGIPPNHAPLVTTLGAQLPPQAPDALVLRTQATQLPIIPTAQPSLTTTSRSPVSPAHQISVPAATQPAALPTLLPSQSPTNQTSPISPTHPHSKAPQIPREDGPSPKLALWLPSPAPTAAPTALGEAGLAEHSQRDDRWLDDDD
notes: extracellular domain; Monomeric secreted fusion protein made in CHO cells; also called TEM1-Fcγ; not shown: murine IgG2b Fcγ domain (hinge through CH3), modified: the four cysteine residues responsible for inter-heavy chain disu
  binding result: no binding (tested: 5, 10, 50 ug/ml)
